Test results reported in patent US20050032689A1, “Methods for treatment or diagnosis of disease or disorders associated with an APB domain” (New York University, priority 1994, published 2005).

Experiments:
EGF receptor [1] = target: T1, EGF receptor (Homo sapiens, UniProt P00533); assay: Binding of GST fusion proteins on glutathione-agarose beads to EGF receptor from HER14 cell lysates, immunoblot
T1 construct: expressed in transfected cells; host or cells: HER14 (NIH 3T3 cells expressing human EGF receptor)
Procedure: FIGS. 2A and 2B. Association of GST-Shc 1-209 with the EGF Receptor (EGFR). A, HER14 lysates from either EGF-stimulated (+) or unstimulated (−) cells (5×10^6 cells) were incubated with 3 μg of GST fusion protein immobilized on glutathione-agarose beads. The bound proteins were washed, subjected to SDS-PAGE, transferred to nitrocellulose and immunoblotted with anti-EGF receptor antibody, anti-C (anti-EGFR). HER14 lysate (4×10^5 cells) was run directly on the gel in lanes 5 and 6. B, unstimulated HER14 lysates (5×10^6 cells) were immunoprecipitated with anti-EGFR antibody (mAb 108). The immobilized receptor was then phosphorylated (+) by the addition of 5 mM MnCl2 and 50 μM ATP or left unphosphorylated (−) by adding MnCl2 alone. Bacterial lysates containing 5 μg of GST, GST-Grb7, and GST-Shc 1-209 were then diluted in 1 ml of 1% Triton X-100 lysis buffer, added to the immobilized receptor and incubated at 4° C. for 90 min. The bound proteins were washed and together with 40 μl of the post-binding supernatant separated by SDS-PAGE and transferred to nitrocellulose. The bound fractions (left panel) and supernatants (right panel) were immunoblotted with anti-GST. FIGS. 4A, 4B, 4C and 4D. Binding of Shc fragments to growth factor receptors. A, schematic diagram illustrating the Shc fragments used in binding studies. Full length murine p52^shc is indicated in (i) while (ii)-(vi) were generated as GST fusion proteins for use in receptor binding studies. B, association of various GST fusion proteins with activated EGF receptor (EGFR). Binding was performed as in FIG. 2A with the exception that all lysates were stimulated with EGF. All studies used 3 μg of fusion proteins except for the Shc SH2 where 10 μg was used. Immunoblotting was performed with anti-phosphotyrosine. C, binding of Shc fusion proteins to NIH 3T3 cells expressing a HER1/2 chimera. This chimera consists of the EGF receptor extracellular binding domain and the intracellular region of HER2/neu. After stimulation of these cells with EGF (200 ng/ml) lysates were prepared and binding as well as blotting studies were performed as in B using anti-phosphotyrosine antibody. D, binding of Shc 1-209 to TrkA. Beads containing 10 μg of GST fusion proteins Shc 1-209, phospholipase C-γ (PLC-γ) SH2 (contains both N and C SH2 domains), or GST alone were added to lysates from 2×10^7 PC12 cells stimulated with 50 ng/ml nerve growth factor (lanes 1, 2, and 4). The binding of the same amount of lysate to 2 μg of anti-TrkA antibody is shown as a positive control and to indicate the position of TrkA on the blot (lane 3). Otherwise, the binding and blotting were performed as in B using anti-phosphotyrosine antibody. […]

EGF receptor [2] = target: T1, EGF receptor; assay: Binding of GST fusion proteins to immunoprecipitated EGF receptor phosphorylated in vitro, anti-GST blot; conditions: immunoprecipitated receptor from unstimulated cells, with or without Mn2+ and ATP
Procedure: FIGS. 2A and 2B. Association of GST-Shc 1-209 with the EGF Receptor (EGFR). A, HER14 lysates from either EGF-stimulated (+) or unstimulated (−) cells (5×10^6 cells) were incubated with 3 μg of GST fusion protein immobilized on glutathione-agarose beads. The bound proteins were washed, subjected to SDS-PAGE, transferred to nitrocellulose and immunoblotted with anti-EGF receptor antibody, anti-C (anti-EGFR). HER14 lysate (4×10^5 cells) was run directly on the gel in lanes 5 and 6. B, unstimulated HER14 lysates (5×10^6 cells) were immunoprecipitated with anti-EGFR antibody (mAb 108). The immobilized receptor was then phosphorylated (+) by the addition of 5 mM MnCl2 and 50 μM ATP or left unphosphorylated (−) by adding MnCl2 alone. Bacterial lysates containing 5 μg of GST, GST-Grb7, and GST-Shc 1-209 were then diluted in 1 ml of 1% Triton X-100 lysis buffer, added to the immobilized receptor and incubated at 4° C. for 90 min. The bound proteins were washed and together with 40 μl of the post-binding supernatant separated by SDS-PAGE and transferred to nitrocellulose. […]
Binding Studies—GST fusion proteins were expressed using standard techniques (Ausubel, F. M., et al. Current Protocols in Molecular Biology, (1992) Wiley Interscience, New York). Protein concentration was determined by SDS-PAGE (polyacrylamide gel electrophoresis) using bovine serum albumin as a standard. […]

B1: Shc 1-209: Shc amino terminus, first 209 amino acids of murine p52Shc, generated as a GST fusion protein (protein, UniProt P98083 1-209, looked up, fragment)
chain: MDLLPPKPKYNPLRNESLSSLEEGASGSTPPEELPSPSASSLGPILPPLPGDDSPTTLCSFFPRMSNLKLANPAGGRLGPKGEPGKAAEDGEGSAGAALRDSGLLPLLQDMNKLSGGGGRRTRVEGGQLGGEEWTRHGSFVNKPTRGWLHPNDKVMGPGVSYLVRYMGCVEVLQSMRALDFNTRTQVTREAISLVCEAVPGAKGATRRR
modifications: GST fusion
notes: Shc amino terminus, first 209 amino acids of murine p52Shc, generated as a GST fusion protein
EGF receptor binding compared with the Shc SH2 domain (EGF receptor [1]; 3 μg fusion protein vs 10 μg Shc SH2, EGF-stimulated lysates): comparable or superior | binding to EGF receptor (EGF receptor [1]; GST fusion protein, lysates of EGF-stimulated or unstimulated cells): bound only to the activated tyrosine-phosphorylated receptor | binding to EGF receptor phosphorylated in vitro (EGF receptor [2]): bound directly to phosphorylated but not non-phosphorylated receptors
